Assay results taken from patent US20240182549A1, “PEPTIDES AND ANTIBODY FUSIONS THAT BIND TO SARS-COV-2 AND METHODS OF USING SAME” (priority 2021, published 2024).

Assays:
[1] = target: S protein of authentic (isogenic) SARS-CoV-2 variant B.1.351, on virus (SARS-CoV-2) (UniProt P0DTC2); assay: cell-based or functional assay
[2] = target: S protein of authentic SARS-CoV-2 variant D614G, on virus (SARS-CoV-2) (UniProt P0DTC2); assay: cell-based or functional assay

## IgG REGN10933 (antibody)
[1]
  IC50, focus reduction neutralization test: > 1000 ng/mL
[2]
  IC50, focus reduction neutralization test: 10 ng/mL
